Molecular target: cell surface of 293 AAV cells (human)
Experiment: cell binding on ice for 1 h at 200000 TU/cell; unbound particles recovered from the medium and titrated on TG1 E. coli by colony counting; relative to control

Substance: RGD.PAAV vector (phagemid/AAV particle displaying the RGD4C targeting peptide on the pIII minor coat protein)
- binding efficiency (percentage of vectors bound to the cell surface): 58.2%

Substance: M13.PAAV vector (non-targeted phagemid/AAV particle lacking RGD4C) (from UniProt P69168 19-424)
- binding efficiency (percentage of vectors bound to the cell surface): 7.1%
